Results on seven compounds are retold here after US12607633B2 (priority 2016, dated 2026).

“Also recorded” adds a separate entry of the source.

Data set [1] has as its target ZIKV ns2B-ns3 protease (Zika virus, UniProt A0A024B7W1, C1582S/C1645S/R1467A/R1531G). It counts as biochemical.
For data set [2], the system named is VEEV. It counts as cell-based, Venezuelan equine encephalitis virus (VEEV).
Data set [3] concerns the target VEEV nsP2 protease cleavage of TRIM14 (Venezuelan equine encephalitis virus, UniProt P27282). The class given is cell-based.
For data set [4], the target named is WEEV nsP2 cysteine protease (Western equine encephalitis virus, UniProt P13896).
Data set [5] deals with T1, VEEV nsP2 cysteine protease (Venezuelan equine encephalitis virus, UniProt P27282). Particulars: pH 7.
For data set [6], the target named is CHIKV nsP2 cysteine protease (Chikungunya virus, UniProt Q8JUX6, A1139V/C1177Y/S1178N).
Data set [7] addresses T1, VEEV nsP2 cysteine protease.
Data set [8] has as its target EEEV nsP2 cysteine protease (Eastern equine encephalitis virus, UniProt Q4QXJ8). It counts as biochemical.

VEEV nsP2 protease cleavage of TRIM14, sequence (P27282 536-1329 limits assumed): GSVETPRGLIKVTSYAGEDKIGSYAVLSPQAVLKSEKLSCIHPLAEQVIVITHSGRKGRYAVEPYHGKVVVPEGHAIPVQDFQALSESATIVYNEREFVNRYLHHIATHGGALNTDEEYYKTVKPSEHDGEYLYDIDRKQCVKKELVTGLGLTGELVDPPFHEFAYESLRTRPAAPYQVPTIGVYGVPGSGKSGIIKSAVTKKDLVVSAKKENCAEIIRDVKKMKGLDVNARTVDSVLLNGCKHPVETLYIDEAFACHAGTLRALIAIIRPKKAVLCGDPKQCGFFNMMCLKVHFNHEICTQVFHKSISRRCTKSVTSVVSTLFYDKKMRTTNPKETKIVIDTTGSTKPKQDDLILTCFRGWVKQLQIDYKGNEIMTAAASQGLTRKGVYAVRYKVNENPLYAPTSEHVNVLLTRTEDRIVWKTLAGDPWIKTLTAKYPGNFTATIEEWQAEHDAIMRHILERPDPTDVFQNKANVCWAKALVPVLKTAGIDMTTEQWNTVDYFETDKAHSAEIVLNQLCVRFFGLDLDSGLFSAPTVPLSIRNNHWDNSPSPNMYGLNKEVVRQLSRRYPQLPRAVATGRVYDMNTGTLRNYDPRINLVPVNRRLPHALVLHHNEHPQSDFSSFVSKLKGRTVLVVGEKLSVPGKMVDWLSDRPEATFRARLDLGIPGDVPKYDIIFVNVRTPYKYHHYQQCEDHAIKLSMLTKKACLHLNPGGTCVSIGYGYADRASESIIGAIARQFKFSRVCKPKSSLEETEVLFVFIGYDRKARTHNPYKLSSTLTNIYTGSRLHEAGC

As for “CFP-NT5M-YFP: CFP-YFP substrate, 34-residue human NT5M sequence MIRLGGWCARRLCSAAVPAGRR↓GAAGGLGLAGGR ({CFP}-MIRLGGWCARRLCSAAVPAGRRGAAGGLGLAGGR-{YFP}; cysteine pairing not given here)”, the “Proteases cutting the substrate: ZIKV ns2B-ns3 protease” value in data set [1] is “cleavage; also recorded: ZIKV ns2B-ns3 protease”.

For “CFP-FOXG1-YFP: CFP-YFP substrate, 21-residue human FOXG1 sequence RSTTSRAKLAFKR↓GARLTSTG ({CFP}-RSTTSRAKLAFKRGARLTSTG-{YFP})”, the “Proteases cutting the substrate: ZIKV ns2B-ns3 protease” value in data set [1] is reported as “cleavage; also recorded: ZIKV ns2B-ns3 protease”.

Consider `CCCNC(=O)[C@H]1O[C@@H]1C(=O)N[C@H](C(=O)N1CCC[C@H]1C(=O)OC)[C@@H](C)CC` [CA074 methyl ester], for which the “VEEV titers / viral replication (plaque assays)” value in data set [2] was “halted viral replication; also recorded: decreased significantly”. Moreover, in data set [3], the “TRIM14 cleavage product (CP) in infected cell lysates (immunoblot)” value is “halted; also recorded: absent; also recorded: no longer present”.

For the compound “CFP-SFRP2-YFP: Uncleavable control CFP-YFP substrate, 34 residues MLQGPGSLLLLFLASHCCLGSARGLFLFGQPDFS ({CFP}-MLQGPGSLLLLFLASHCCLGSARGLFLFGQPDFS-{YFP}; cysteine pairing not given here)”, in data set [1], the “Proteases cutting the substrate: ZIKV ns2B-ns3 protease” value was “Control, not cleaved by ZIKV”.

For the compound “CFP-SFRP1-YFP: CFP-YFP substrate, 25-residue human SFRP1 sequence MGIGRSEGGRR↓GAALGVLLALGAAL ({CFP}-MGIGRSEGGRRGAALGVLLALGAAL-{YFP})”, the “Proteases cutting the substrate: ZIKV ns2B-ns3 protease” value in data set [1] is reported as “cleavage; also recorded: ZIKV ns2B-ns3 protease”.

“CFP-SFRP4-YFP: Uncleavable control CFP-YFP substrate, 34 residues MFLSILVALCLWLHLALGVRGAPCEAVRIPMCRH ({CFP}-MFLSILVALCLWLHLALGVRGAPCEAVRIPMCRH-{YFP}; cysteine pairing not given here)”: the “Proteases cutting the substrate: ZIKV ns2B-ns3 protease” value in data set [1] is on record as “Control, not cleaved by ZIKV”.

Consider “CFP-TRIM14-YFP (SEQ ID NO: 4): CFP-YFP FRET substrate, 25 residues of human TRIM14 DCFATGRHYWEVDVQEAGA↓GWWVGA (DCFATGRHYWEVDVQEAGAGWWVGA)”, for which the “Extent of cleavage of TRIM14 substrate by WEEV nsP2 protease (SDS-PAGE)” value in data set [4] is listed as “did not show significant amounts of cleavage”. Moreover, in data set [5], the Km came out at 21 ± 2 µM and the Vmax amounted to 0.056 ± 0.002 U/mg. The “Extent of cleavage of TRIM14 substrate by CHIKV nsP2 protease (SDS-PAGE)” value in data set [6] is “did not show evidence of significant cleavage”. Moreover, in data set [7], the “Proteases cutting the substrate: VEEV nsP2 cysteine protease” value is on record as “VEEV nsP2 cysteine protease”. In data set [8], the “Extent of cleavage of TRIM14 substrate by EEEV nsP2 protease (SDS-PAGE)” value is reported as “did not show significant amounts of cleavage”.
